Test results as given in patent US20240166767A1 (SCIRHOM, published 2024).

Tests used:
endogenous human iRhom2 = molecular target: T1, endogenous human iRhom2 (human, UniProt Q6PJF5 1-856); test: cell-based or functional assay
T1 sequence: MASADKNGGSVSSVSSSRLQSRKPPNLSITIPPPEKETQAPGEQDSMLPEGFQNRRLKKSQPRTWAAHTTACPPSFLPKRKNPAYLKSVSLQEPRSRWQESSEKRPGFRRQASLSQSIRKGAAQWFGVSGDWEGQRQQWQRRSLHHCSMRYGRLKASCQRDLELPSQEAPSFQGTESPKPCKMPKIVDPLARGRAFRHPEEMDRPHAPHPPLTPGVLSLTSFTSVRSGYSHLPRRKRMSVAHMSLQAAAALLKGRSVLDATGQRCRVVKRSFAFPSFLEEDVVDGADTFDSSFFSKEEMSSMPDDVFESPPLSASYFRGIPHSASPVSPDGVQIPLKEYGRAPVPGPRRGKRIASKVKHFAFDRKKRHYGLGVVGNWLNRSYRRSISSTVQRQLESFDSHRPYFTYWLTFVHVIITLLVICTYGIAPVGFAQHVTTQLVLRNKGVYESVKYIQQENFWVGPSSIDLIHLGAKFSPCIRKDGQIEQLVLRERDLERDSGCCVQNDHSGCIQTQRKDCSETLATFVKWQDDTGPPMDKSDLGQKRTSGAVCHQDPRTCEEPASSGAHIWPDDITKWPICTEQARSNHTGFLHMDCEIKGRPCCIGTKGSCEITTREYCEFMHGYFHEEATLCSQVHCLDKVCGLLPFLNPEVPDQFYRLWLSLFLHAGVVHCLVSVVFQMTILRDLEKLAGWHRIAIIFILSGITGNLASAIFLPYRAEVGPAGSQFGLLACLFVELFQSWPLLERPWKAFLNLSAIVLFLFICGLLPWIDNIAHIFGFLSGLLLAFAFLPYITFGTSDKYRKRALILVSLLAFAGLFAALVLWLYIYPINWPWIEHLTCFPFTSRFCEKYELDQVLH

[1] = molecular target: T2, human iRhom1 full length wild type C-terminally tagged with 3 consecutive copies of the T7 epitope (human, UniProt Q96CC6 1-855); test: FACS on MEF-DKO-hiR1-FL-WT-T7 cells
T2 construct: also called hiR1-FL-WT-T7; human iRhom1 variant
T2 sequence: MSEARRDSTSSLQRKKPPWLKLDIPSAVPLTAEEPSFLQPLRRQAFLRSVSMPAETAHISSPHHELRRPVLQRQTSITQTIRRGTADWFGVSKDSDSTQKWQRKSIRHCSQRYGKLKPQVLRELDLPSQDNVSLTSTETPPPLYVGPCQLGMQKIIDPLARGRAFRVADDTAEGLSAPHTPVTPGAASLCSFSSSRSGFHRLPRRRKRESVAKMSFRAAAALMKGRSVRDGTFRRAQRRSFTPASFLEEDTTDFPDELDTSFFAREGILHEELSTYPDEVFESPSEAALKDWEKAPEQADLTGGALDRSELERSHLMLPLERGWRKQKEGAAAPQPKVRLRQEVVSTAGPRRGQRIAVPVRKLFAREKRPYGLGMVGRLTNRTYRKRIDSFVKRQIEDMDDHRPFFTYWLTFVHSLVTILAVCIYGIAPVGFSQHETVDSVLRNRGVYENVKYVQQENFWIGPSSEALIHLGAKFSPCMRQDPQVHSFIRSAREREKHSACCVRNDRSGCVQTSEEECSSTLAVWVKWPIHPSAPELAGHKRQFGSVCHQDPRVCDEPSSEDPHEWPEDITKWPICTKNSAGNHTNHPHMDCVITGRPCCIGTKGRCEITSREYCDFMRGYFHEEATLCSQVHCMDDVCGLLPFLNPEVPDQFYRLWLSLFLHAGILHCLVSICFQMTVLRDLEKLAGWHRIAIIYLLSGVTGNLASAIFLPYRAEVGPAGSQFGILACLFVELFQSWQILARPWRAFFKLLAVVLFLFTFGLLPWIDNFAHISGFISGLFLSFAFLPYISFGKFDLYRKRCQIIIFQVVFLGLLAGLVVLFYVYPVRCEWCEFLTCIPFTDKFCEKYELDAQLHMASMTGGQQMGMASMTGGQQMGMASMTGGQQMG
Procedure: In brief, in addition to immortalized MEF-DKO-EV control cells and MEF-DKO-hiR2-FL-WT-T7 cells (as already described in example 3), MEF-DKO-hiR1-FL-WT-T7 cells were harvested with 10 mM EDTA in PBS, washed and resuspended in FACS buffer (PBS, 3% FBS, 0.05% sodium azide), and seeded in Nunc U-bottom 96-well plates (Thermo Fisher Scientific, USA) at approximately 3×10⁵ cells per well. To pellet cells and remove supernatants, the plates were centrifuged at 1,500 rpm and 4° C. for 3 minutes. For primary staining, cells were resuspended in 100 μl per well of either FACS buffer alone (controls), mouse monoclonal anti-T7 IgG (Merck Millipore, USA) at 3 μg/ml FACS buffer or the humanized antibodies 16-B-03, 16-B-05, 16-B-07, 23-B-04, 42-B-02, 42-B-04 of the invention also at 3 μg/ml FACS buffer and incubated on ice for 1 hour. Afterwards, plates were centrifuged at 1,500 rpm and 4° C. for 3 minutes and washed twice with 200 μl per well of FACS buffer. For secondary staining of previous anti T7 staining, cells were spun down and resuspended in 100 μl per well of PE-conjugated goat anti-mouse IgG F(ab′)2 detection fragment (Dianova, Germany) diluted 1:100 in FACS buffer. For secondary staining of previous staining with humanized antibodies of invention, cells were spun down and resuspended in 100 μl per well of PE-conjugated goat anti-human IgG F(ab′)2 detection fragment (Dianova, Germany) diluted 1:100 in FACS buffer. Protected from light, the cell suspensions were incubated on ice for 1 hour. Plates were then centrifuged at 1,500 rpm and 4° C. for 3 minutes and washed three times with 200 μl per well of FACS buffer. Finally, cells were resuspended in 150 μl per well of FACS buffer and analyzed using a BD Accuri™ C6 Plus flow cytometer (Becton Dickinson, Germany).

Binder	percent inhibition of LPS-induced release of TNFα from PBMCs from healthy donors (ELISA, antibody 3 µg/ml) (endogenous human iRhom2)	percent inhibition of LPS-induced release of TNFα from THP-1 cells (ELISA, antibody 3 µg/ml) (endogenous human iRhom2)	percent inhibition of PMA-induced release of HB-EGF from PBMCs from healthy donors (ELISA, antibody 3 µg/ml) (endogenous human iRhom2)	percent inhibition of PMA-induced release of HB-EGF from THP-1 cells (ELISA, antibody 3 µg/ml) (endogenous human iRhom2)	percent inhibition of PMA-induced release of HB-EGF from U-937 cells (ELISA, antibody 3 µg/ml) (endogenous human iRhom2)	percent inhibition of PMA-induced release of IL-6R from PBMCs from healthy donors (ELISA, antibody 3 µg/ml) (endogenous human iRhom2)	percent inhibition of PMA-induced release of IL-6R from THP-1 cells (ELISA, antibody 3 µg/ml) (endogenous human iRhom2)	percent inhibition of PMA-induced release of IL-6R from U-937 cells (ELISA, antibody 3.33 µg/ml) (endogenous human iRhom2)	percent inhibition of PMA-induced release of TGFα from PC3 cells (ELISA, antibody 10 µg/ml) (endogenous human iRhom2)	percent inhibition of PMA-induced release of TNFα from U-937 cells (ELISA, antibody 3.33 µg/ml) (endogenous human iRhom2)	binding result [1]
humanized antibody 16-B-07 (antibody, V domains shown, Tested as whole humanized antibody produced in CHO cells and detected with anti-human IgG; the general methods speak of human IgG1/Kappa; also called clone 16-B-07) VH: QVTLRESGPALVKPTQTLTLTCTFSGFSLSTFALGVGWIRQPPGKALEWLAHIWWDEDKYYNPALKSRLTISKDTSKNQVVLTITNMDPVDTATYYCARITTYYYGMDYWGQGTLVTVSS VL: EIVMTQSPDFQSVTPKEKVTITCRASQSIGNHLHWYQQKPDASPKLLIKYASQSISGVPSRFSGSGSGTDFTLTINSLEAEDAATYFCQQSYQWPLTFGQGTKLEIK	72.8%	77.2%	66.5%	80.5%	99.2%	75.4%	75.6%	77.5%	3.3%	90.3%	no binding (tested: 3 µg/ml)
humanized antibody 16-B-03 (antibody, V domains shown, Tested as whole humanized antibody produced in CHO cells and detected with anti-human IgG; the general methods speak of human IgG1/Kappa; also called clone 16-B-03) VH: QVTLRESGPALVKPTQTLTLTCTFSGFSLSTFALGVGWIRQPPGKALEWLAHIWWDDDKYYNPALKSRLTISKDTSKNQVVLTITNMDPVDTATYYCARITTYYYGMDYWGQGTLVTVSS VL: EIVMTQSPDFQSVTPKEKVTITCRASQSIGNHLHWYQQKPDASPKLLIKYASQSISGVPSRFSGSGSGTDFTLTINSLEAEDAATYFCQQSYQWPLTFGQGTKLEIK	74.2%	75.1%	69.7%	80.2%	99.2%	75%	75.6%	79.6%	15.9%	89.8%	no binding (tested: 3 µg/ml)
humanized antibody 42-B-04 (antibody, V domains shown, Tested as whole humanized antibody produced in CHO cells and detected with anti-human IgG; the general methods speak of human IgG1/Kappa; also called clone 42-B-04) VH: QVTLRESGPALVKPTQTLTLTCTFSGFSLSTFGRGVGWIRQPPGKALEWLAHIWWDDEKYYNSALKSRLTISKDTSKNQVVLTITNMDPVDTATYYCARIQNYGSNYWYFDVWGQGTLVTVSS VL: AIQLTQSPSSLSASVGDRVTITCRASSRISYMFWYQQKPGKAPKVLIYDTSNLASGVPSRFSGSGSGTDYTLTISSLQPEDFATYYCQQWNAYPLTFGQGTKLEIK	68.5%	76.1%	66.7%	86.2%	99.4%	78.4%	71.6%	82.4%	19.5%	87.9%	no binding (tested: 3 µg/ml)
humanized antibody 42-B-02 (antibody, V domains shown, Tested as whole humanized antibody from transient expression of heavy chain/kappa light chain pairs in CHO cells, detected with anti-human IgG; the general methods speak of human IgG1/Kappa; also called clone 42-B-02) VH: QVTLRESGPALVKPTQTLTLTCTFSGFSLSTFGRGVGWIRQPPGKALEWLAHIWWDDEKYYNSALKSRLTISKDTSKNQVVLTITNMDPVDTATYYCARIQNYGSNYWYFDVWGQGTLVTVSS VL: AIQLTQSPSSLSASVGDRVTITCRASSRISYMFWYQQKPGKAPKVLIYDTSNLASGVPSRFSGSGSGTDYTLTISSLQPEDFATYYCQQWNSYPLTFGQGTKLEIK	64.3%	75.2%	59.2%	81.2%	98.8%	73.4%	68.5%	78.3%	6.4%	85%	no binding (tested: 3 µg/ml)
humanized antibody 23-B-04 (antibody, V domains shown, Tested as whole humanized antibody produced in CHO cells and detected with anti-human IgG; the general methods speak of human IgG1/Kappa; also called clone 23-B-04) VH: QVTLRESGPALVKPTQTLTLTCTFSGFSLSTFGMGVGWIRQPPGKALEWLAHIWWDDEKYYNSALKSRLTISKDTSKNQVVLTITNMDPVDTATYYCARISNYGSNYWYFNVWGQGTLVTVSS VL: AIQLTQSPSSLSASVGDRVTITCRASSSVSYMYWYQQKPGKAPKVLIYDTSNLASGVPSRFSGSGSGTDYTLTISSLQPEDFATYYCQQWNAYPLTFGQGTKLEIK	59.4%	77.6%	49.6%	84.4%	99.5%	64.6%	70.1%	77.8%	21.3%	77.2%	no binding (tested: 3 µg/ml)
